The text below walks through data of FireProtDB (doi:10.1021/bi036049+).

Several values for one entry are separate records, joined by “and”; a condition that tells them apart may be missing. Equal entries are not always repeated.

The conditions of the data set: Thermal, CD, whole UniProt chain shown.

B1: Iron-sulfur cluster assembly protein CyaY wild type, P27838 (protein)
chain: MNDSEFHRLADQLWLTIEERLDDWDGDSDIDCEINGGVLTITFENGSKIIINRQEPLHQVWLATKQGGYHFDLKGDEWICDRSGETFWDLLEQAATQQAGETVSFR
For B1, the Tm (Escherichia coli (strain K12), pH 6, phosphate 20 mM, reversible: yes (>95%)) worked out at 53.5 °C; the Tm (Escherichia coli (strain K12), pH 7, Hepes 10 mM, CaCl2 1 mM, reversible: yes (>95%)) was found to be 62.7 °C; the Tm (Escherichia coli (strain K12), pH 7, Hepes 10 mM, reversible: yes (86%)) was found to be 61.2 °C; the Tm (Escherichia coli (strain K12), pH 7, Hepes 10 mM, reversible: yes (>95%)) is 50.4 °C; the Tm (Escherichia coli (strain K12), pH 7, phosphate 20 mM, reversible: yes (>95%)) stood at 53.8 °C; the Tm (Escherichia coli (strain K12), pH 7.5, Hepes 10 mM, reversible: yes (86%)) is 60.5 °C. Moreover, the Tm was 54.8 °C and 58.3 °C (Escherichia coli (strain K12), pH 7.5, Hepes 10 mM, reversible: yes (>95%)); 53.8 °C (Escherichia coli (strain K12), pH 8, phosphate 20 mM, reversible: yes (>95%)); 45.8 °C (Escherichia coli (strain K12), pH 8, phosphate 200 mM, reversible: yes (>95%)).

B2: Frataxin, mitochondrial wild type, Q16595 (protein)
chain: MWTLGRRAVAGLLASPSPAQAQTLTRVPRPAELAPLCGRRGLRTDIDATCTPRRASSNQRGLNQIWNVKKQSVYLMNLRKSGTLGHPGSLDETTYERLAEETLDSLAEFFEDLADKPYTFEDYDVSFGSGVLTVKLGGDLGTYVINKQTPNKQIWLSSPSSGPKRYDWTGKNWVYSHDGVSLHELLAAELTKALKTKLDLSSLAYSGKDA
As to B2, the Tm by setting is: (Homo sapiens, pH 6, phosphate 150 mM, reversible: yes (>95%)) 64.9 °C; (Homo sapiens, pH 7, Hepes 10 mM, CaCl2 1 mM, reversible: yes (>95%)) 65.9 °C; (Homo sapiens, pH 7, Hepes 10 mM, NaCl 150 mM, reversible: yes (>95%)) 65 °C; (Homo sapiens, pH 7, Hepes 10 mM, reversible: yes (88%)) 68.6 °C; (Homo sapiens, pH 7, phosphate 20 mM, reversible: yes (>95%)) 60 °C; (Homo sapiens, pH 7, phosphate 150 mM, reversible: yes (>95%)) 65.7 °C.

B3: Frataxin homolog, mitochondrial wild type, Q07540 (protein)
chain: MIKRSLASLVRVSSVMGRRYMIAAAGGERARFCPAVTNKKNHTVNTFQKRFVESSTDGQVVPQEVLNLPLEKYHEEADDYLDHLLDSLEELSEAHPDCIPDVELSHGVMTLEIPAFGTYVINKQPPNKQIWLASPLSGPNRFDLLNGEWVSLRNGTKLTDILTEEVEKAISKSQ
With B3, the Tm is, setting by setting: (Saccharomyces cerevisiae (strain ATCC 204508 / S288c), pH 6, phosphate 20 mM, reversible: yes (>95%)) 39.9 °C; (Saccharomyces cerevisiae (strain ATCC 204508 / S288c), pH 6, phosphate 150 mM, reversible: yes (>95%)) 49 °C; (Saccharomyces cerevisiae (strain ATCC 204508 / S288c), pH 7, Hepes 10 mM, CaCl2 1 mM, reversible: yes (>95%)) 51.1 °C; (Saccharomyces cerevisiae (strain ATCC 204508 / S288c), pH 7, Hepes 10 mM, CaCl2 150 mM, reversible: yes (>95%)) 52.9 °C; (Saccharomyces cerevisiae (strain ATCC 204508 / S288c), pH 7, Hepes 10 mM, NaCl 150 mM, reversible: yes (>95%)) 44.6 °C; (Saccharomyces cerevisiae (strain ATCC 204508 / S288c), pH 7, Hepes 10 mM, NaF 150 mM, reversible: yes (>95%)) 44.8 °C. For the same protein, the Tm by setting is: (Saccharomyces cerevisiae (strain ATCC 204508 / S288c), pH 7, phosphate 150 mM, reversible: yes (>95%)) 48.6 °C and 53.6 °C; (Saccharomyces cerevisiae (strain ATCC 204508 / S288c), pH 7.2, Hepes 10 mM, NaF 150 mM, reversible: yes (>95%)) 46.9 °C; (Saccharomyces cerevisiae (strain ATCC 204508 / S288c), pH 7.2, Hepes 10 mM, reversible: No) 44.8 °C; (Saccharomyces cerevisiae (strain ATCC 204508 / S288c), pH 7.2, Hepes 10 mM, reversible: yes (47%)) 42.3 °C; (Saccharomyces cerevisiae (strain ATCC 204508 / S288c), pH 7.2, Hepes 10 mM, reversible: yes (86%)) 37.9 °C; (Saccharomyces cerevisiae (strain ATCC 204508 / S288c), pH 7.4, Hepes 10 mM, reversible: yes (>95%)) 35.5 °C. The Tm (Saccharomyces cerevisiae (strain ATCC 204508 / S288c), pH 8, phosphate 150 mM, reversible: yes (>95%)) amounted to 45.9 °C.

One may read the Tm as the temperature at which the thermal transition is half complete.
